Measured values as given in patent publication US20070249061A1 (PROTEOGEN, published 2007).
No end group written: not given here.

B1: HGLVHK-NH2 (peptide)
peptide: HGLVHK-NH2
notes: also called HGLVHK peptide; peptide number 7
B2: HGDLHK-NH2 (peptide)
peptide: HGDLHK-NH2
notes: also called HGDLHK peptide; peptide number 4
B3: HHLLHK-NH2 (peptide)
peptide: HHLLHK-NH2
notes: also called HHLLHK peptide; peptide number 3
B4: HSDVHK-NH2 (peptide)
peptide: HSDVHK-NH2
notes: also called HSDVHK peptide; peptide number 11
B5: HGDVHK-NH2 (peptide)
peptide: HGDVHK-NH2
notes: also called HGDVHK peptide; peptide number 10

Target: T1, integrin αvβ3 (UniProt P06756 31-1048; P05106 27-788)
T1 construct: Heterodimer immobilized on ProteoChip
T1 sequence (P06756 31-1048, chain 1 of 2): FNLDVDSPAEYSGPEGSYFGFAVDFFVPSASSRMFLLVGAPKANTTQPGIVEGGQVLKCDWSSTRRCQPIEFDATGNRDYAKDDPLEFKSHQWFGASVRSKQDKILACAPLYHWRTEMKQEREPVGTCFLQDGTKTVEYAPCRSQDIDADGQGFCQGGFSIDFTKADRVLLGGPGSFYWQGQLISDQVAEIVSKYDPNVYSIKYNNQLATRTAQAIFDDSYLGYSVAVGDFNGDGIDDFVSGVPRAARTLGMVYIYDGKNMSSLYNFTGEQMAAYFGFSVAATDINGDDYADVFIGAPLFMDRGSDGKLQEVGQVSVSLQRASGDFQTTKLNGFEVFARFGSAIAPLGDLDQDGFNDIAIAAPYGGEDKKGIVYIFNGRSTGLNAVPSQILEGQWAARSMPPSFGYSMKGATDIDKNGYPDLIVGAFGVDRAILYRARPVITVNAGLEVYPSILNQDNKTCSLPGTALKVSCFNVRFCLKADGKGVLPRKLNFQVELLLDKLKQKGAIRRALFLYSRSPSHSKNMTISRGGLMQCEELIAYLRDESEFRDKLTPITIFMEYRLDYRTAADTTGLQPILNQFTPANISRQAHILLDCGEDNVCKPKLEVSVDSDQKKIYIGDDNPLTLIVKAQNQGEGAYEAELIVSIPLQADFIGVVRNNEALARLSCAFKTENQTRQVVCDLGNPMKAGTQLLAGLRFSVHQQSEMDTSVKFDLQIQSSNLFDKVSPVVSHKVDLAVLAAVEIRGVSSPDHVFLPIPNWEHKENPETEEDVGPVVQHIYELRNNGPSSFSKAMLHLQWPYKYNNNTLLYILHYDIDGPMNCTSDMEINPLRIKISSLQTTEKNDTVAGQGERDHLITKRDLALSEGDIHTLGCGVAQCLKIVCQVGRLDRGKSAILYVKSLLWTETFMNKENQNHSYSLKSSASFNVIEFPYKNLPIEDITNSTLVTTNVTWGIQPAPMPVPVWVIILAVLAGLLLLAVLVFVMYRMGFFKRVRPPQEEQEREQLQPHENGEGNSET
T1 sequence (P05106 27-788, chain 2 of 2): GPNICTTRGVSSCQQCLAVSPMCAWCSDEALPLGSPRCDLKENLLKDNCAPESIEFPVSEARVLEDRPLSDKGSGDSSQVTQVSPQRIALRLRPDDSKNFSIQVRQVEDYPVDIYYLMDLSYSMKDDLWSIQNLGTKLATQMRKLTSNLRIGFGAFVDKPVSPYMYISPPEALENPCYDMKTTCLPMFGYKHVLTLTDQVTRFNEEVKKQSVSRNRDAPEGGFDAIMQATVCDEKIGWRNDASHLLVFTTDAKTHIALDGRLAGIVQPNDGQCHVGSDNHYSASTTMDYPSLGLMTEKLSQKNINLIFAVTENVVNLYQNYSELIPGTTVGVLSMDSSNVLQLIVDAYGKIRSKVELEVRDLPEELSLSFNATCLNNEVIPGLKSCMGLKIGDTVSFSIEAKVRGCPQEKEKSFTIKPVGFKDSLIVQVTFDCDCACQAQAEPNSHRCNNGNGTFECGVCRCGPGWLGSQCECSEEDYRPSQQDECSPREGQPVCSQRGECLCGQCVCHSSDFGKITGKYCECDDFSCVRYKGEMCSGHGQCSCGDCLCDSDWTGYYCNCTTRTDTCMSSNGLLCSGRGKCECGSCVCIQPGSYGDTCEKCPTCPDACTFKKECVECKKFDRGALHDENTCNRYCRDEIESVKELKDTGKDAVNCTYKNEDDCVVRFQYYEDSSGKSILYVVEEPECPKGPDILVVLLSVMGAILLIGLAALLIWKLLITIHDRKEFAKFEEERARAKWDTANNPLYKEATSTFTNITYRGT
Assay: competitive inhibition of integrin αvβ3-vitronectin interaction on protein chip

Binder	IC50 [ng/mL]
B1	0.00243
B2	0.0307
B3	0.0034
B4	0.00174
HSLVHK-NH2 (also called peptide number 8) [HSLVHK-NH2]	0.046
B5	0.0447
HHLVHK-NH2 (also called peptide number 9) [HHLVHK-NH2]	0.313
